Experimental data reported in IntAct's records for PubMed 19918049.

B1: Serine/threonine-protein kinase haspin (Homo sapiens), Q8TF76-1 (parent)
chain: MAASLPGPGSRLFRTYGAADGRRQRRPGREAAQWFPPQDRRRFFNSSGSSDASIGDPSQSDDPDDPDDPDFPGSPVRRRRRRPGGRVPKDRPSLTVTPKRWKLRARPSLTVTPRRLGLRARPPQKCSTPCGPLRLPPFPSRDSGRLSPDLSVCGQPRDGDELGISASLFSSLASPCPGSPTPRDSVISIGTSACLVAASAVPSGLHLPEVSLDRASLPCSQEEATGGAKDTRMVHQTRASLRSVLFGLMNSGTPEDSEFRADGKNMRESCCKRKLVVGNGPEGPGLSSTGKRRATGQDSCQERGLQEAVRREHQEASVPKGRIVPRGIDRLERTRSSRKSKHQEATETSLLHSHRFKKGQKLGKDSFPTQDLTPLQNVCFWTKTRASFSFHKKKIVTDVSEVCSIYTTATSLSGSLLSECSNRPVMNRTSGAPSSWHSSSMYLLSPLNTLSISNKKASDAEKVYGECSQKGPVPFSHCLPTEKLQRCEKIGEGVFGEVFQTIADHTPVAIKIIAIEGPDLVNGSHQKTFEEILPEIIISKELSLLSGEVCNRTEGFIGLNSVHCVQGSYPPLLLKAWDHYNSTKGSANDRPDFFKDDQLFIVLEFEFGGIDLEQMRTKLSSLATAKSILHQLTASLAVAEASLRFEHRDLHWGNVLLKKTSLKKLHYTLNGKSSTIPSCGLQVSIIDYTLSRLERDGIVVFCDVSMDEDLFTGDGDYQFDIYRLMKKENNNRWGEYHPYSNVLWLHYLTDKMLKQMTFKTKCNTPAMKQIKRKIQEFHRTMLNFSSATDLLCQHSLFK

Variants of: B1
Conditions: with h32_mouse H3c13, P84228

Effect of a mutation on the interaction, decreasing interaction:
G713F
H651A
D707L
D709N
E492A
